Laboratory results: the supplement of paper PMC10567573

B1: PPFIA4 (parent)
chain: PGVHRRYSALREESAKDWETSPLP

Variants of: B1
Assay: protein stability index of a GFP-peptide fusion (GPS, HEK-293T) (PSI 1-6); higher = more stable
Settings: c terminus: a fixed tail appended
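Also: lentivirally expressed fusions sorted by FACS into six bins by GFP to DsRed ratio, PSI derived from sequencing read proportions per bin multiplied by bin number.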

Variant	protein stability index
PGVHRRYSALREESLKDWETSPLP [A15L]	4.12
PGVHRRYSALREESMKDWETSPLP [A15M]	2.77
PGVHRRYSALREESNKDWETSPLP [A15N]	3.92
PGVHRRYSALREESPKDWETSPLP [A15P]	4.12
PGVHRRYSALREESQKDWETSPLP [A15Q]	3.63
PGVHRRYSALREESRKDWETSPLP [A15R]	4
PGVHRRYSALREESSKDWETSPLP [A15S]	3.76
PGVHRRYSALREESTKDWETSPLP [A15T]	4.63
PGVHRRYSALREESVKDWETSPLP [A15V]	3.89
PGVHRRYSALREESWKDWETSPLP [A15W]	3.86
PGVHRRYSALREESYKDWETSPLP [A15Y]	3.32
PGVHRRYSALREESAADWETSPLP [K16A]	3.7
PGVHRRYSALREESACDWETSPLP [K16C]	4.02
PGVHRRYSALREESADDWETSPLP [K16D]	4.45
PGVHRRYSALREESAEDWETSPLP [K16E]	4.51
PGVHRRYSALREESAFDWETSPLP [K16F]	3.17
PGVHRRYSALREESAHDWETSPLP [K16H]	4.17
PGVHRRYSALREESAIDWETSPLP [K16I]	3.96
PGVHRRYSALREESALDWETSPLP [K16L]	4.05
PGVHRRYSALREESAMDWETSPLP [K16M]	4.24
PGVHRRYSALREESANDWETSPLP [K16N]	4.66
PGVHRRYSALREESAPDWETSPLP [K16P]	3.89
PGVHRRYSALREESAQDWETSPLP [K16Q]	3.67
PGVHRRYSALREESARDWETSPLP [K16R]	3.99

Variant	protein stability index
PGVHRRYSALREESASDWETSPLP [K16S]	4.13
PGVHRRYSALREESATDWETSPLP [K16T]	4.5
PGVHRRYSALREESAVDWETSPLP [K16V]	4.2
PGVHRRYSALREESAKAWETSPLP [D17A]	3.29
PGVHRRYSALREESAKCWETSPLP [D17C]	3.53
PGVHRRYSALREESAKGWETSPLP [D17G]	3.9
PGVHRRYSALREESAKIWETSPLP [D17I]	3.33
PGVHRRYSALREESAKKWETSPLP [D17K]	3.36
PGVHRRYSALREESAKLWETSPLP [D17L]	2.89
PGVHRRYSALREESAKNWETSPLP [D17N]	3.98
PGVHRRYSALREESAKPWETSPLP [D17P]	3.04
PGVHRRYSALREESAKQWETSPLP [D17Q]	3.39
PGVHRRYSALREESAKRWETSPLP [D17R]	3.34
PGVHRRYSALREESAKSWETSPLP [D17S]	4.16
PGVHRRYSALREESAKTWETSPLP [D17T]	3.31
PGVHRRYSALREESAKVWETSPLP [D17V]	3.86
PGVHRRYSALREESAKWWETSPLP [D17W]	1.97
PGVHRRYSALREESAKYWETSPLP [D17Y]	2.72
PGVHRRYSALREESAKDAETSPLP [W18A]	4.95
PGVHRRYSALREESAKDCETSPLP [W18C]	5.36
PGVHRRYSALREESAKDDETSPLP [W18D]	5.58
PGVHRRYSALREESAKDEETSPLP [W18E]	5.15
PGVHRRYSALREESAKDFETSPLP [W18F]	4.4
PGVHRRYSALREESAKDGETSPLP [W18G]	5.21

Variant	protein stability index
PGVHRRYSALREESAKDHETSPLP [W18H]	5.23
PGVHRRYSALREESAKDIETSPLP [W18I]	4.81
PGVHRRYSALREESAKDKETSPLP [W18K]	4.7
PGVHRRYSALREESAKDLETSPLP [W18L]	4.96
PGVHRRYSALREESAKDMETSPLP [W18M]	5.08
PGVHRRYSALREESAKDNETSPLP [W18N]	5.29
PGVHRRYSALREESAKDPETSPLP [W18P]	5.21
PGVHRRYSALREESAKDQETSPLP [W18Q]	4.77
PGVHRRYSALREESAKDRETSPLP [W18R]	4.42
PGVHRRYSALREESAKDTETSPLP [W18T]	5.24
PGVHRRYSALREESAKDVETSPLP [W18V]	4.67
PGVHRRYSALREESAKDYETSPLP [W18Y]	4.73
PGVHRRYSALREESAKDWATSPLP [E19A]	2.97
PGVHRRYSALREESAKDWCTSPLP [E19C]	3
PGVHRRYSALREESAKDWDTSPLP [E19D]	4.03
PGVHRRYSALREESAKDWFTSPLP [E19F]	2.4
PGVHRRYSALREESAKDWHTSPLP [E19H]	3.41
PGVHRRYSALREESAKDWITSPLP [E19I]	3.41
PGVHRRYSALREESAKDWKTSPLP [E19K]	3.68
PGVHRRYSALREESAKDWLTSPLP [E19L]	3.97
PGVHRRYSALREESAKDWMTSPLP [E19M]	2.93
PGVHRRYSALREESAKDWNTSPLP [E19N]	3.42
PGVHRRYSALREESAKDWPTSPLP [E19P]	3.59
PGVHRRYSALREESAKDWQTSPLP [E19Q]	4.18

Variant	protein stability index
PGVHRRYSALREESAKDWRTSPLP [E19R]	3.55
PGVHRRYSALREESAKDWSTSPLP [E19S]	3.17
PGVHRRYSALREESAKDWTTSPLP [E19T]	3.96
PGVHRRYSALREESAKDWVTSPLP [E19V]	3.24
PGVHRRYSALREESAKDWWTSPLP [E19W]	2.41
PGVHRRYSALREESAKDWYTSPLP [E19Y]	2.37
PGVHRRYSALREESAKDWEASPLP [T20A]	4.05
PGVHRRYSALREESAKDWECSPLP [T20C]	3.75
PGVHRRYSALREESAKDWEDSPLP [T20D]	5.09
PGVHRRYSALREESAKDWEESPLP [T20E]	4.62
PGVHRRYSALREESAKDWEFSPLP [T20F]	2.71
PGVHRRYSALREESAKDWEGSPLP [T20G]	4.55
PGVHRRYSALREESAKDWEHSPLP [T20H]	4.47
PGVHRRYSALREESAKDWEKSPLP [T20K]	4.17
PGVHRRYSALREESAKDWELSPLP [T20L]	3.36
PGVHRRYSALREESAKDWEMSPLP [T20M]	4.37
PGVHRRYSALREESAKDWENSPLP [T20N]	4.55
PGVHRRYSALREESAKDWEPSPLP [T20P]	4.6
PGVHRRYSALREESAKDWEQSPLP [T20Q]	4.49
PGVHRRYSALREESAKDWERSPLP [T20R]	3.66
PGVHRRYSALREESAKDWESSPLP [T20S]	4.83
PGVHRRYSALREESAKDWEVSPLP [T20V]	2.73
